This note sets out measurements from PMC11049809, “Determinants of mer Promoter Activity from Pseudomonas aeruginosa”.

Where a chain is given by its changes, count along the chain named.

T1: MerR (Tn501) (Pseudomonas aeruginosa (Tn501), UniProt P0A183 1-144)
T1 sequence: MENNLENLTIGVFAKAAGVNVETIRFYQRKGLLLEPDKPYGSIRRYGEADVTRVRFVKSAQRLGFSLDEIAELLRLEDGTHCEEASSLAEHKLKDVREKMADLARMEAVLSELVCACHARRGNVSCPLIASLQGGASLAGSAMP

B1: Pmer-M14 (dsDNA)
DNA 1: TTGACTCCGTACATGAGTACGGTAAGGT
DNA 2: ACCTTACCGTACTCATGTACGGAGTCAA
B2: Pmer-M7 (dsDNA)
DNA 1: TTGACTCCGTACATGAGACGGAAGTAAGGT
DNA 2: ACCTTACTTCCGTCTCATGTACGGAGTCAA
B3: Pmer-M12 (dsDNA)
DNA 1: TTGACTCCGTACATGAGTACGGGTAAGGT
DNA 2: ACCTTACCCGTACTCATGTACGGAGTCAA
B4: Pmer-M1 (dsDNA)
DNA 1: TTGACTCGTACATGAGTACGGAAGTAAGGT
DNA 2: ACCTTACTTCCGTACTCATGTACGAGTCAA
B5: Pmer-M4 (dsDNA)
DNA 1: TTGACTCCGTACTGAGTACGGAAGTAAGGT
DNA 2: ACCTTACTTCCGTACTCAGTACGGAGTCAA
B6: Pmer-M10 (dsDNA)
DNA 1: TTGACTCCGTACATGAGTACGGAGTAAGGT
DNA 2: ACCTTACTCCGTACTCATGTACGGAGTCAA
B7: Pmer-M11 (dsDNA)
DNA 1: B6 DNA 1 with G24A
DNA 2: B6 DNA 2 with C7T

In the series the target is T1, MerR (Tn501). Description: EMSA; 0-600 nM MerR, 30 nM DNA, no Hg stated; 10 mM Tris-HCl pH 8.0, 50 mM KCl, 5 mM MgCl2, 10% glycerol, 25 C 10 min; 8% native PAGE, 80 V 45 min. To be noted: protein: recombinant; chain copies: 2; blunt. A general note: In EMSA bound probe runs differently from free probe, usually more slowly.
Regarding B1, the binding result is given as “binds”. As for B2, the entry is “no binding”.

Regarding B3, the binding result is recorded as “binds”. B4: the binding result is “binds”. For B5, the binding result is given as “no binding”. For B6, the binding result is on record as “binds”. In the case of B7, the binding result was “binds”.
